Publication PMC10418658, “Biochemical and Structural Insights into a Thiamine Diphosphate-Dependent α-Ketoglutarate Decarboxylase from Cyanobacterium Microcystis aeruginosa NIES-843” (International Journal of Molecular Sciences, 2023)

Assays:
Experiment in all cases: purified protein
[1] = substrate: Cc1ncc(C[n+]2csc(CCO[P@](=O)(O)OP(=O)(O)O)c2C)c(N)n1; conditions: half-saturation of activity, varied: cofactor
[2] = substrate: O=C(O)CCC(=O)C(=O)O; format: biochemical, Synechocystis sp. PCC 6803; conditions: saturated ThDP and Mg2+; purified from coexpression with pTf16
[3] = substrate: O=C(O)CCC(=O)C(=O)O; format: biochemical, Microcystis aeruginosa; conditions: 1 mM ThDP, 2 mM Mg2+, 100 mM HEPES pH 7.0, 10% glycerol, 25 °C
[4] = substrate: Cc1ncc(C[n+]2csc(CCO[P@](=O)(O)OP(=O)(O)O)c2C)c(N)n1; format: biochemical, Microcystis aeruginosa; conditions: 10 mM α-ketoglutarate, 2 mM Mg2+, 100 mM HEPES pH 7.0, 10% glycerol, 25 °C, varied: cofactor

B1: StKGD (Synechocystis sp. PCC 6803 substr. Kazusa) (protein)
chain: MGQMNTADLLVQCLENEDVEYIFGVPGEENLHILEALKNSPIRFITTRHEQGAAFMADVYGRLTGKAGVCLSTLGPGATNLMTGVADANLDGAPLVAITGQVGTDRMHIESHQYLDLVAMFDPVTKWTRQIVRPSITPEVVRKAFKLAQSEKPGATHIDLPENIAAMPVDGKPLRRDSREKVYAAFRTLGTAANAISKAKNPIILAGNGTIRAEASEALTEFATSLNIPVANTFMGKGTMPYTHPLSLWTVGLQQRDHITCAFEKSDLVIAVGYDLIEYSPKKWNPTGDLPIIHIGATPAEIDSSYIPQVEVVGDITDSLMDLLKRCDRQGKPTPYGASLRAEIRAEYECYANDTGFPVKPQKIIYDLRQVMGPDDVVISDVGAHKMWMARHYHCDSPNTCLISNGFAAMGIAIPGAIAAKLVYPERNIVAVTGDGGFMMNCQELETAMRVGTPFVTLIFNDNGYGLIEWKQINQFGESSFIKFGNPDFVKFAESMGLKGYRVEAAADLIPILKEALAQPVPTVIDCPVDYRENIRFSQKAGELACEIWE
notes: recombinant, coexpressed with chaperone plasmid pTf16 and purified again in this study
B1 showed a K0.5 ([1]; purified from coexpression with pTf16) of 0.063 ± 0.019 mM, a Km [2] of 3830 ± 750 µM and a kcat [2] of 3.07 ± 0.42 s⁻¹. For the same protein, the kcat/Km [2] was 800 M⁻¹ s⁻¹.

B2: MaKGD (Microcystis aeruginosa NIES-843) (protein)
chain: MGELNTAELLVKCLENEGVEYIFGLPGEENLDVLEALKNSSIKFITTRHEQGAAFMADVYGRLTGKAGVCLSTLGPGATNLMTGVADANLDGAPLVAITGQVGTDRMHIESHQYLDLVAMFAPVTKWNKQIVRPGITPEVVRRAFKTAQSEKPGAVHIDLPENIAAMAADGHPLPLDSQEKVYASYRTLNMAAAVISKAKNPLILAGNGAIRANASEALTEFATALNIPVANTFMGKGVIPYTHPLALWAVGLQQRDLISCAFERSDLIIAVGYDLIEYSPKKWNPDGKLPIIHIGMTPAEIDSSYAPVVEVVGDITDSLIDILKRADRQNKPTPVTAGLKTEIRADYETYANDTGFPIKPQKLIYDLRQVMGPEDIAICDVGAHKMWMARQYHSDCPNTCIISNGFAAMGIAIPGAIAAKLVYPNKRIVAVTGDGGFMMNCQELETALRVGTPFVTLIFNDGGYGLIEWKQLNYFGTSSFIKFGNPDFVKFAESMGLKGYRVESTQDLIPTLEEAFRQEVPTVIDVPVDYGENLRLSQKSGDLSCQIWE
notes: full length, pET28a (NdeI/XhoI), E. coli BL21(DE3) with chaperone plasmid pTf16, imidazole-eluted; codon-optimised gene
Protein B2 has a K0.5 ([1]; 10 mM α-ketoglutarate, 2 mM Mg2+, 100 mM HEPES pH 7.0, 10% glycerol, 25 °C, pH 7.0, 25.0 °C) of 0.0056 ± 0.0007 mM, a Km [3] of 870 ± 230 µM and a kcat [3] of 7.8 ± 0.5 s⁻¹. It also gave a kcat/Km [3] of 8970 M⁻¹ s⁻¹.

B3: MaKGD (Microcystis aeruginosa NIES-843; M410A) (protein)
chain: MGELNTAELLVKCLENEGVEYIFGLPGEENLDVLEALKNSSIKFITTRHEQGAAFMADVYGRLTGKAGVCLSTLGPGATNLMTGVADANLDGAPLVAITGQVGTDRMHIESHQYLDLVAMFAPVTKWNKQIVRPGITPEVVRRAFKTAQSEKPGAVHIDLPENIAAMAADGHPLPLDSQEKVYASYRTLNMAAAVISKAKNPLILAGNGAIRANASEALTEFATALNIPVANTFMGKGVIPYTHPLALWAVGLQQRDLISCAFERSDLIIAVGYDLIEYSPKKWNPDGKLPIIHIGMTPAEIDSSYAPVVEVVGDITDSLIDILKRADRQNKPTPVTAGLKTEIRADYETYANDTGFPIKPQKLIYDLRQVMGPEDIAICDVGAHKMWMARQYHSDCPNTCIISNGFAAAGIAIPGAIAAKLVYPNKRIVAVTGDGGFMMNCQELETALRVGTPFVTLIFNDGGYGLIEWKQLNYFGTSSFIKFGNPDFVKFAESMGLKGYRVESTQDLIPTLEEAFRQEVPTVIDVPVDYGENLRLSQKSGDLSCQIWE
notes: as for B2
B3 was tested, and the K0.5 [4] was 0.046 ± 0.010 mM.

B4: MaKGD (Microcystis aeruginosa NIES-843; D435E) (protein)
chain: MGELNTAELLVKCLENEGVEYIFGLPGEENLDVLEALKNSSIKFITTRHEQGAAFMADVYGRLTGKAGVCLSTLGPGATNLMTGVADANLDGAPLVAITGQVGTDRMHIESHQYLDLVAMFAPVTKWNKQIVRPGITPEVVRRAFKTAQSEKPGAVHIDLPENIAAMAADGHPLPLDSQEKVYASYRTLNMAAAVISKAKNPLILAGNGAIRANASEALTEFATALNIPVANTFMGKGVIPYTHPLALWAVGLQQRDLISCAFERSDLIIAVGYDLIEYSPKKWNPDGKLPIIHIGMTPAEIDSSYAPVVEVVGDITDSLIDILKRADRQNKPTPVTAGLKTEIRADYETYANDTGFPIKPQKLIYDLRQVMGPEDIAICDVGAHKMWMARQYHSDCPNTCIISNGFAAMGIAIPGAIAAKLVYPNKRIVAVTGEGGFMMNCQELETALRVGTPFVTLIFNDGGYGLIEWKQLNYFGTSSFIKFGNPDFVKFAESMGLKGYRVESTQDLIPTLEEAFRQEVPTVIDVPVDYGENLRLSQKSGDLSCQIWE
notes: as for B2
B4 was tested, and the K0.5 [4] was 0.041 ± 0.003 mM.

B5: MaKGD (Microcystis aeruginosa NIES-843; L467A) (protein)
chain: MGELNTAELLVKCLENEGVEYIFGLPGEENLDVLEALKNSSIKFITTRHEQGAAFMADVYGRLTGKAGVCLSTLGPGATNLMTGVADANLDGAPLVAITGQVGTDRMHIESHQYLDLVAMFAPVTKWNKQIVRPGITPEVVRRAFKTAQSEKPGAVHIDLPENIAAMAADGHPLPLDSQEKVYASYRTLNMAAAVISKAKNPLILAGNGAIRANASEALTEFATALNIPVANTFMGKGVIPYTHPLALWAVGLQQRDLISCAFERSDLIIAVGYDLIEYSPKKWNPDGKLPIIHIGMTPAEIDSSYAPVVEVVGDITDSLIDILKRADRQNKPTPVTAGLKTEIRADYETYANDTGFPIKPQKLIYDLRQVMGPEDIAICDVGAHKMWMARQYHSDCPNTCIISNGFAAMGIAIPGAIAAKLVYPNKRIVAVTGDGGFMMNCQELETALRVGTPFVTLIFNDGGYGAIEWKQLNYFGTSSFIKFGNPDFVKFAESMGLKGYRVESTQDLIPTLEEAFRQEVPTVIDVPVDYGENLRLSQKSGDLSCQIWE
notes: as for B2
B5 gave a K0.5 [4] of 0.026 ± 0.004 mM, a Km [3] of 1220 ± 510 µM and a kcat [3] of 2.7 ± 0.32 s⁻¹.

B6: MaKGD (Microcystis aeruginosa NIES-843; D462N) (protein)
chain: MGELNTAELLVKCLENEGVEYIFGLPGEENLDVLEALKNSSIKFITTRHEQGAAFMADVYGRLTGKAGVCLSTLGPGATNLMTGVADANLDGAPLVAITGQVGTDRMHIESHQYLDLVAMFAPVTKWNKQIVRPGITPEVVRRAFKTAQSEKPGAVHIDLPENIAAMAADGHPLPLDSQEKVYASYRTLNMAAAVISKAKNPLILAGNGAIRANASEALTEFATALNIPVANTFMGKGVIPYTHPLALWAVGLQQRDLISCAFERSDLIIAVGYDLIEYSPKKWNPDGKLPIIHIGMTPAEIDSSYAPVVEVVGDITDSLIDILKRADRQNKPTPVTAGLKTEIRADYETYANDTGFPIKPQKLIYDLRQVMGPEDIAICDVGAHKMWMARQYHSDCPNTCIISNGFAAMGIAIPGAIAAKLVYPNKRIVAVTGDGGFMMNCQELETALRVGTPFVTLIFNNGGYGLIEWKQLNYFGTSSFIKFGNPDFVKFAESMGLKGYRVESTQDLIPTLEEAFRQEVPTVIDVPVDYGENLRLSQKSGDLSCQIWE
notes: as for B2
With B6 the K0.5 [4] was 0.008 ± 0.001 mM, the Km [3] was 3920 ± 450 µM and the kcat [3] was 1.5 ± 0.36 s⁻¹.

B7: MaKGD (Microcystis aeruginosa NIES-843; D462E) (protein)
chain: MGELNTAELLVKCLENEGVEYIFGLPGEENLDVLEALKNSSIKFITTRHEQGAAFMADVYGRLTGKAGVCLSTLGPGATNLMTGVADANLDGAPLVAITGQVGTDRMHIESHQYLDLVAMFAPVTKWNKQIVRPGITPEVVRRAFKTAQSEKPGAVHIDLPENIAAMAADGHPLPLDSQEKVYASYRTLNMAAAVISKAKNPLILAGNGAIRANASEALTEFATALNIPVANTFMGKGVIPYTHPLALWAVGLQQRDLISCAFERSDLIIAVGYDLIEYSPKKWNPDGKLPIIHIGMTPAEIDSSYAPVVEVVGDITDSLIDILKRADRQNKPTPVTAGLKTEIRADYETYANDTGFPIKPQKLIYDLRQVMGPEDIAICDVGAHKMWMARQYHSDCPNTCIISNGFAAMGIAIPGAIAAKLVYPNKRIVAVTGDGGFMMNCQELETALRVGTPFVTLIFNEGGYGLIEWKQLNYFGTSSFIKFGNPDFVKFAESMGLKGYRVESTQDLIPTLEEAFRQEVPTVIDVPVDYGENLRLSQKSGDLSCQIWE
notes: as for B2
For B7, the K0.5 [4] was 0.761 ± 0.143 mM, the Km [3] was 2380 ± 630 µM and the kcat [3] was 9 ± 0.47 s⁻¹.

B8: MaKGD (Microcystis aeruginosa NIES-843; Y465A) (protein)
chain: MGELNTAELLVKCLENEGVEYIFGLPGEENLDVLEALKNSSIKFITTRHEQGAAFMADVYGRLTGKAGVCLSTLGPGATNLMTGVADANLDGAPLVAITGQVGTDRMHIESHQYLDLVAMFAPVTKWNKQIVRPGITPEVVRRAFKTAQSEKPGAVHIDLPENIAAMAADGHPLPLDSQEKVYASYRTLNMAAAVISKAKNPLILAGNGAIRANASEALTEFATALNIPVANTFMGKGVIPYTHPLALWAVGLQQRDLISCAFERSDLIIAVGYDLIEYSPKKWNPDGKLPIIHIGMTPAEIDSSYAPVVEVVGDITDSLIDILKRADRQNKPTPVTAGLKTEIRADYETYANDTGFPIKPQKLIYDLRQVMGPEDIAICDVGAHKMWMARQYHSDCPNTCIISNGFAAMGIAIPGAIAAKLVYPNKRIVAVTGDGGFMMNCQELETALRVGTPFVTLIFNDGGAGLIEWKQLNYFGTSSFIKFGNPDFVKFAESMGLKGYRVESTQDLIPTLEEAFRQEVPTVIDVPVDYGENLRLSQKSGDLSCQIWE
notes: as for B2
With B8 the K0.5 [4] was 0.090 ± 0.021 mM, the Km [3] was 1480 ± 270 µM and the kcat [3] was 1.23 ± 0.25 s⁻¹.

B9: MiKGD (Microcystis aeruginosa NIES-4325) (protein)
chain: MGELNTAELLVKCLENEGVEYIFGLPGEENLDVLEALKNSSIKFITTRHEQGAAFMADVYGRLTGKAGVCLSTLGPGATNLMTGVADANLDGAPLVAITGQVGTDRMHIESHQYLDLVAMFAPVTKWNKQIVRPGITPEVVRRAFKTAQSEKPGAVHIDLPENIAAMPADGHPLPLDSQEKVYASYRTLNMAAAVISKAKNPLILAGNGAIRANASEALTEFATALNIPVANTFMGKGVIPYTHPLALWAVGLQQRDLISCAFDRSDLIIAVGYDLIEYSPKKWNPEGKLPIIHIGMTPAEIDSSYAPVVEVVGDITDSLIDILKRADRQNKPTPVTAGLKTEIRADYETYANDTGFPIKPQKLIYDLRQVMGPEDIVISDVGAHKMWMARQYHSDCPNTCIISNGFAAMGIAIPGAIAAKLVHPDKRVVAVTGDGGFMMNCQELETALRVGTPFVTLIFNDGGYGLIEWKQFNYFGTSSFIKFGNPDFVKFAESMGLKGYRVESAQDLIPILEEAFQQEVPTVIDVPVDYGENLRLSQKSGDLSCQIWE
notes: full length, pET28a (NdeI/XhoI), E. coli BL21(DE3) with chaperone plasmid pTf16; codon-optimised gene
For B9, the K0.5 ([4]; half-saturation of activity) was 0.026 ± 0.006 mM, the Km [3] was 4470 ± 630 µM and the kcat [3] was 4.33 ± 0.37 s⁻¹. The kcat/Km [3] was 970 M⁻¹ s⁻¹.
